For the experiment, the target named is FGF receptor/BKL complex. As to the kind of experiment: FGF receptor potency in an Erk phosphorylation assay in HEK293 overexpressing human BKL. It is filed as cell-based. The settings on record: HEK293/BKL cells, pERK after 12 minutes. As to the method: In order to test the binding of the FGF21 derivatives to albumin, the assay was performed in the absence of serum albumin as well as in the presence of human serum albumin (HSA) (0.1% final assay concentration). An increase in EC50 value (decrease in potency) in the presence of serum albumin for FGF21 derivatives would indicate binding to serum albumin and represents a method to predict a protracted pharmacokinetic profile of the test substance in animal models. MetFGF21 (SEQ ID NO:2) is included for reference.
Sequence of FGF receptor/BKL complex (Q86Z14 whole entry, one chain of several): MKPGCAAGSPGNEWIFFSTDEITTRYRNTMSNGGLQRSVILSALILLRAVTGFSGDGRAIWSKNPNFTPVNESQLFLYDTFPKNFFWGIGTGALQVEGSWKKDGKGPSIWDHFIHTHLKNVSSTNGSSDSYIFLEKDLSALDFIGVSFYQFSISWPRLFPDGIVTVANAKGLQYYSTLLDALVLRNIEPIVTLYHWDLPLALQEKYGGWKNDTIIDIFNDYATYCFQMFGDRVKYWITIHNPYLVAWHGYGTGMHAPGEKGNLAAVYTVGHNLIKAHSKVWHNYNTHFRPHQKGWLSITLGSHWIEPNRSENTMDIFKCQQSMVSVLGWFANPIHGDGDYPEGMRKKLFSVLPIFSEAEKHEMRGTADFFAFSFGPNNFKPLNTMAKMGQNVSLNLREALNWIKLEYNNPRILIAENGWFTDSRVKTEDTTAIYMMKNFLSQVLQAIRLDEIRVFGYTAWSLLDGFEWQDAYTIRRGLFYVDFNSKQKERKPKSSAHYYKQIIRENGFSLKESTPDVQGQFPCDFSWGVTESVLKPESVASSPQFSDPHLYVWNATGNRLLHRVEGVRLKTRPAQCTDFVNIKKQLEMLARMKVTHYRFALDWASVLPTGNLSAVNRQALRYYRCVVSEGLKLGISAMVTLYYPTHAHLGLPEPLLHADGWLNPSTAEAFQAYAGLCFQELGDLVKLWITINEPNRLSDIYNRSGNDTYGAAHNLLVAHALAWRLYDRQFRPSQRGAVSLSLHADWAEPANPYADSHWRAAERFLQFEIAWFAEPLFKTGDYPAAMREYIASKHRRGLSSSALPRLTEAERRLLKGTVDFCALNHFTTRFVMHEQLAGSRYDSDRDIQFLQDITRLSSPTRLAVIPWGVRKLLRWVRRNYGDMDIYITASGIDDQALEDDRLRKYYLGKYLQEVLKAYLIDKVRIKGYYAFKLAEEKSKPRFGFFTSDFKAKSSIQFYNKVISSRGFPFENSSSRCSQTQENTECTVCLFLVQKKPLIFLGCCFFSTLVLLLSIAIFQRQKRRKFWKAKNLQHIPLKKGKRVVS
HEK293 cells endogenously express several FGF receptors, including FGFR1c, FGFR3c and FGFR4. These cells are unresponsive to FGF21 until transfected with the co-receptor beta-klotho (BKL). Activation of the FGF receptor/BKL complex leads to activation of the MAPK/ERK signalling pathway and phosphorylation of ERK. The level of phosphorylated ERK (pERK) at a given time point increases with increasing concentrations of FGF21. As described below the level of pERK is measured after 12 minutes of stimulation with a range of FGF21 analogue concentrations.
The HEK293/beta-klotho cells are seeded with 30.000 cells/well in 96 well plates in DMEM (BioWhittaker #BE12-604F/U1), supplemented with 10% FCS (Gibco #16140-071), 1% penicillin/streptomycin (Gibco #15140), 100 µg/ml Hygromycin B, (Calbiochem, # 400052). Two days later and 2 hours before addition of compound the cell medium is exchanged with 100 ∞l basal medium (DMEM (BioWhittaker #BE12-604F/U1)). The FGF21 analogues are diluted in assay medium (DMEM (BioWhittaker #BE12-604F/U1) supplemented with 0.02% Tween20), warmed to 37° C., added to the cells (100 μl) and incubated at 37° C. for 12 minutes. The FGF21 derivatives were also tested in the presence of 0.1% HSA (Sigma—A1887). All medium is quickly removed and 50 μl lysis buffer is added pr. well. The plate is shaken for 5 minutes and the lysate is ready for measurement of pERK. pERK is measured in 384 well plates with the AlphaScreen SureFire kit (PerkinElmer #TGRES10K). This kit is based on ERK and pERK specific antibodies coupled to donor and acceptor beads. The presence of pERK will bring acceptor and donor beads in close proximity and a signal is generated that is read on EnVision. The data are analysed using GraphPad Prism and the potency of the FGF21 proteins is described as absolute EC50 value.

[1] abbreviates: presence of 0.1% HSA, read-out: EC50 (0.1% HSA).

One may read the EC50 as the concentration giving half of the maximal effect.

Changes are numbered by the printed parent chain. Like-named read-outs stand apart in the source and are kept apart here.

B1: 18-[[(1S)-4-[2-[2-[2-[2-[2-[2-(2-acetamidoethylamino)-2-oxo-ethoxy]ethoxy]ethylamino]-2-oxo-ethoxy]ethoxy]ethylamino]-1-carboxy-4-oxo-butyl]amino]-18-oxo-octadecanoic … (protein)
chain: HPIPDSSPLLQFGGQVRQRYLYTDDAQQTEAHLEIREDGTVGGAADQSPESLLQLKALKPGVIQILGVKTSRFLCQRPDGALYGSLHFDPEACSFRELLLEDGYNVYQSEAHGLPLHLPGQKSPHRDPAPRGPARFLPLPGLPPALPEPPGILAPQPPDVGSSDPLSLVCPSQGRSPSYAS
Take B1: the 50% effective concentration (EC50) is 1 nM (absence of HSA, read-out: EC50) and 20 nM under setting [1].

B2: 20-[[(1S)-4-[2-[2-[2-[2-[2-[2-[[(1S)-5-acetamido-1-carboxy-pentyl]amino]-2-oxo-ethoxy]ethoxy]ethylamino]-2-oxo-ethoxy]ethoxy]ethylamino]-1-carboxy-4-oxo-butyl]amino]-20-oxo-icosanoic … (protein)
chain: B1 chain with C170G, A180C
Turning to B2, the EC50 was determined as 6.1 nM (absence of HSA, read-out: EC50) and 52.5 nM under setting [1].

B3: S{Beta-173}-[2-[2-[[2-[2-[2-[[2-[2-[2-[[(4S)-4-carboxy-4-(15-carboxypentadecanoyl-amino)butanoyl]amino]ethoxy]ethoxy]acetyl]amino]ethoxy]ethoxy]acetyl]amino]-ethylamino]-2-oxoethyl]-Ala[Gln121,Leu168, … (protein)
chain: B1 chain with C170G, Q173C
On to B3, for which the 50% effective concentration (EC50) (absence of HSA, read-out: EC50) stood at 3 nM and the concentration giving a half-maximal response (EC50) under setting [1] worked out at 4 nM.

B4: 20-[[(1S)-4-[[(1S)-4-[2-[2-[2-[2-[2-[2-[[(1S)-5-acetamido-1-carboxy-pentyl]amino]-2-oxo-ethoxy]ethoxy]ethylamino]-2-oxo-ethoxy]ethoxy]ethylamino]-1-carboxy-4-oxo-butyl]amino]-1-carboxy-4-oxo-butyl]ami … (protein)
chain: B1 chain with C170G, A180C
Take B4: the 50% effective concentration (EC50) is 10.3 nM (absence of HSA, read-out: EC50) and 65.5 nM under setting [1].

B5: S{Beta-175}-[2-[2-[[2-[2-[2-[[2-[2-[2-[[(4S)-4-carboxy-4-(15-carboxypentadecanoyl-amino)butanoyl]amino]ethoxy]ethoxy]acetyl]amino]ethoxy]ethoxy]acetyl]amino]-ethylamino]-2-oxoethyl]-Ala[Gln121,Leu168, … (protein)
chain: B1 chain with C170G, R175C
For the molecule B5, the EC50 reads like this: (absence of HSA, read-out: EC50) 1 nM; under setting [1], 1 nM.

B6: S{Beta-176}-[2-[2-[[2-[2-[2-[[2-[2-[2-[[(4S)-4-carboxy-4-(15-carboxypentadecanoyl-amino)butanoyl]amino]ethoxy]ethoxy]acetyl]amino]ethoxy]ethoxy]acetyl]amino]-ethylamino]-2-oxoethyl]-Ala[Gln121,Leu168, … (protein)
chain: B1 chain with C170G, S176C
On to B6, for which the EC50 is, setting by setting: (absence of HSA, read-out: EC50) 214 nM; under setting [1], 373 nM.

B7: 4-[10-[[4-[2-[2-[2-[2-[2-[2-[[(1S)-5-acetamido-1-carboxy-pentyl]amino]-2-oxo-ethoxy]ethoxy]ethylamino]-2-oxo-ethoxy]ethoxy]ethylamino]-4-oxo-butyl]sulfonylamino]-10-oxo-decoxy]benzoic … (protein)
chain: B1 chain with C170G, A180C
Turning to B7, the EC50 amounted to 3.2 nM (absence of HSA, read-out: EC50) and 4 nM under setting [1].

B8: 12-[[(1S)-4-[2-[2-[2-[2-[2-[2-[[(1S)-5-acetamido-1-carboxy-pentyl]amino]-2-oxo-ethoxy]ethoxy]ethylamino]-2-oxo-ethoxy]ethoxy]ethylamino]-1-carboxy-4-oxo-butyl]amino]-12-oxo-dodecanoic … (protein)
chain: B1 chain with C170G, A180C
Take B8: the concentration giving a half-maximal response (EC50) amounted to 8.4 nM (absence of HSA, read-out: EC50) and 3.4 nM under setting [1].

B9: 18-[[(1S)-4-[2-[2-[2-[2-[2-[2-(2-acetamidoethylamino)-2-oxo-ethoxy]ethoxy]ethylamino]-2-oxo-ethoxy]ethoxy]ethylamino]-1-carboxy-4-oxo-butyl]amino]-18-oxo-octadecanoic … (protein)
chain: B1 chain with C170G, G174C
As to B9, the concentration for a half-maximal effect (EC50) is, setting by setting: (absence of HSA, read-out: EC50) 1 nM; under setting [1], 1 nM.

B10: 16-[[(1S)-4-[2-[2-[2-[2-[2-[2-(2-acetamidoethylamino)-2-oxo-ethoxy]ethoxy]ethylamino]-2-oxo-ethoxy]ethoxy]ethylamino]-1-carboxy-4-oxo-butyl]amino]-16-oxo-hexadecanoic … (protein)
chain: B1 chain with C170G, G174C
Take B10: the half-maximal effective concentration (EC50) reads like this: (absence of HSA, read-out: EC50) 2 nM; under setting [1], 4 nM.

B11: S{Beta-169}-[2-[2-[[2-[2-[2-[[2-[2-[2-[[(4S)-4-carboxy-4-(15-carboxypentadecanoyl-amino)butanoyl]amino]ethoxy]ethoxy]acetyl]amino]ethoxy]ethoxy]acetyl]amino]-ethylamino]-2-oxoethyl]-Ala[Gln121,Leu168, … (protein)
chain: B1 chain with V169C, C170G
For B11, the EC50 runs as follows: (absence of HSA, read-out: EC50) 25 nM; under setting [1], 20 nM.

B12: (2S)-6-acetamido-2-[[2-[2-[2-[[2-[2-[2-[[(4S)-4-carboxy-4-(16-sulfohexadecanoylamino)butanoyl]amino]ethoxy]ethoxy]acetyl]amino]ethoxy]ethoxy]acetyl]amino]hexadecanoic … (protein)
chain: B1 chain with C170G, A180C
B12: the concentration giving a half-maximal response (EC50) is 4.2 nM (absence of HSA, read-out: EC50) and 7.1 nM under setting [1].

B13: S{Beta-174}-[2-[2-[[2-[2-[2-[[2-[2-[2-[[(4S)-4-carboxy-4-(13-carboxytridecanoyl-amino)butanoyl]amino]ethoxy]ethoxy]acetyl]amino]ethoxy]ethoxy]acetyl]amino]-ethylamino]-2-oxoethyl]-Ala[Gln121,Leu168,Cy … (protein)
chain: B1 chain with C170G, G174C
As for B13, the EC50 worked out at 4 nM (absence of HSA, read-out: EC50) and 4 nM under setting [1].

These data come from patent publication US20170182124A1, “FGF21 Derivatives and Uses Thereof” (Novo Nordisk A/S, priority 2014, published 2017).
